Consider 50 substances from patent US20140134132A1.

For the assay, the target named is organic anion transporting polypeptide 1B1 (UniProt Q9Y6L6). Nature of the assay: cell-based or functional assay.
Chain of organic anion transporting polypeptide 1B1 (Q9Y6L6 whole entry): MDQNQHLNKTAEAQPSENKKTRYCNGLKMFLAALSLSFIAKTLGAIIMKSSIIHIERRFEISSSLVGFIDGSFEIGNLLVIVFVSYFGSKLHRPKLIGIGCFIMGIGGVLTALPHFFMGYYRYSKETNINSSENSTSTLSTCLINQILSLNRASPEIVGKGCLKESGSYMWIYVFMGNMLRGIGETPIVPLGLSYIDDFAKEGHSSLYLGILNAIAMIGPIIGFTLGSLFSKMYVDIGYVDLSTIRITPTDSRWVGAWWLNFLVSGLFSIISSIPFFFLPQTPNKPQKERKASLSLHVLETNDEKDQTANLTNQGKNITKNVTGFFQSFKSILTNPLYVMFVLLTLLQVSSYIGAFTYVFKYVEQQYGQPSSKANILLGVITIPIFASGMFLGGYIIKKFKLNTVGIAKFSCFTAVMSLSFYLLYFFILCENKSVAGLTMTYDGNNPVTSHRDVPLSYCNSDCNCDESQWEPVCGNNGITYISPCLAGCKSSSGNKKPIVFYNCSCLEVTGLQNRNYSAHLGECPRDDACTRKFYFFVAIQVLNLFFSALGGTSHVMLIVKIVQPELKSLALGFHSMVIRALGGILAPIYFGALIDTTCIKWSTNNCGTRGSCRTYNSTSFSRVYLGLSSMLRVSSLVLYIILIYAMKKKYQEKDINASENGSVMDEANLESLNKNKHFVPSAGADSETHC
“3-[D-Ala]-4-[(2S,3S)-4-(2-(4-isopropylpiperazin-1-yl)ethoxy)-3-methyl-2-(methylamino)butanoyl]-cyclosporin (peptide)” returned an OATP1B13 IC50 of 4.4 µM.
The substance “3-[D-Ala]-4-[(2S,3R)-4-(4-acetylpiperazin-1-yl)-3-methyl-2-(methylamino)butanoyl]-cyclosporin (peptide)” yielded an OATP1B13 IC50 of 2.3 µM.
Under “3-[D-Ala]-4-[(2S,3R)-3-methyl-2-(methylamino)-6-((4-methylpiperazine-1-carbonyl)oxy)hexanoyl]-cyclosporin (peptide)” stands 2.9 µM; under “3-[D-Ala]-4[(2S,3R)-2-Amino-4-(4-isopropyl-piperazin-1-yl)-butanoyl]-cyclosporin (peptide)”, 2.44 µM.
The substance “3-[D-Ala]-4-[(2S,3R)-3-methyl-2-(methylamino)-5-((S)-3-oxotetrahydro-1H-oxazolo[3,4-a]pyrazin-7(3H)-yl)pentanoyl]-cyclosporin (peptide)” yielded an OATP1B13 IC50 of 2.8 µM.
Regarding “3-[D-Ala]-4-[(2S,3R)-3-methyl-2-(methylamino)-4-(1,4-oxazepan-4-yl)butanoyl]-cyclosporin (peptide)”, the OATP1B13 IC50 was determined as 1.7 µM.
“3-[D-Ala]-4[(2S,3R)-2-Amino-4-(4-cyclobutyl-piperazin-1-yl)-butanoyl]-cyclosporin (peptide)” registered an OATP1B13 IC50 of 5.2 µM.
Take “3-[D-Ala]-4-[(2S,3R)-4-(8-oxa-3-azabicyclo[3.2.1]octan-3-yl)-3-methyl-2-(methylamino)butanoyl]-cyclosporin (peptide)”: the OATP1B13 IC50 was found to be 1.7 µM.
For the substance “3-[D-Ala]-4-[(2S,3R)-3-methyl-2-(methylamino)-4-(3-(trifluoromethyl)-5,6-dihydro-[1,2,4]triazolo[4,3-a]pyrazin-7(8H)-yl)butanoyl]-cyclosporin (peptide)”, the OATP1B13 IC50 turned out to be 1 µM.
Take “3-[D-Ala]-4-[(2S,3R)-3-methyl-6-((methyl(1-methylpiperidin-4-yl)carbamoyl)oxy)-2-(methylamino)hexanoyl]-cyclosporin (peptide)”: the OATP1B13 IC50 was found to be 3.7 µM.
For “3-[D-Ala]-4-[(2S,3S)-3-methyl-4-(2-(methyl(2,2,2-trifluoroethyl)amino)ethoxy)-2-(methylamino)butanoyl]-cyclosporin (peptide)” the value was 1.9 µM; for “3-[D-Ala]-4-[(2S,3S)-4-(2-(4-cyclohexylpiperazin-1-yl)-2-oxoethoxy)-3-methyl-2-(methylamino)butanoyl]-cyclosporin (peptide)”, 3.5 µM.
In the case of “3-[D-Ala]-4-[(2S,3R)-5-(4-(2-methoxyethyl)piperazin-1-yl)-3-methyl-2-(methylamino)pentanoyl]-cyclosporin (peptide)”, the OATP1B13 IC50 amounted to 9.1 µM.
Consider “3-[D-Ala]-4-[(2S,3R)-4-(3,3-difluoropyrrolidin-1-yl)-3-methyl-2-(methylamino)butanoyl]-cyclosporin (peptide)”, for which the OATP1B13 IC50 was determined as 1.4 µM.
As for “3-[D-Ala]-4[(2S,3R)-2-Amino-3-methyl-4-(4-oxetan-3-yl-piperazin-1-yl)]-butanoyl]-cyclosporin (peptide)”, the OATP1B13 IC50 is 1.17 µM.
In turn, “3-[D-Ala]-4-[(2S,3S)-3-methyl-2-(methylamino)-4-((morpholine-4-carbonyl)oxy)butanoyl]-cyclosporin (peptide)” came in with an OATP1B13 IC50 of 2.3 µM.
“3-[D-Ala]-4-[(2S,3R)-4-((4-ethylpiperazine-1-carbonyl)oxy)-3-methyl-2-(methylamino)butanoyl]-cyclosporin (peptide)” returned an OATP1B13 IC50 of 2.2 µM.
Under “3-[D-Ala]-4-[(2S,3R)-3-methyl-2-(methylamino)-4-(2-oxa-6-azaspiro[3.4]octan-6-yl)butanoyl]-cyclosporin (peptide)” stands 2 µM; under “3-[D-Ala]-4[(2S,3S)-3-methyl-2-(methylamino)-4-(4-(methylsulfonyl)piperazin-1-yl)butanoyl]-cyclosporin (peptide)”, 0.4 µM.
“3-[(R)-2-(methylamino)butanoic acid]-4-[(2S,3S)-4-methoxy-3-methyl-2-(methylamino)butanoyl]-cyclosporin (peptide)” yielded an OATP1B13 IC50 of 2.1 µM.
Under “3-[D-Ala]-4-[(2S,3R)-6-hydroxy-3,6-dimethyl-2-(methylamino)heptanoyl]-cyclosporin (peptide)” stands 2.2 µM; under “3-[D-Ala]-4-[(2S,3R)-6-(4-(2-methoxyethyl)piperazin-1-yl)-3-methyl-2-(methylamino)hexanoyl]-cyclosporin (peptide)”, 2.2 µM.
For the substance “3-[D-Ala]-4-[(2S,3S)-4-hydroxy-3-methyl-2-(methylamino)butanoyl]-cyclosporin (peptide)”, the OATP1B13 IC50 is 3.6 µM.
The substance “3-[D-Ala]-4-[(2S,3S)-4-((4-ethylpiperazine-1-carbonyl)oxy)-3-methyl-2-(methylamino)butanoyl]-cyclosporin (peptide)” gave an OATP1B13 IC50 of 1.9 µM.
Take “3-[D-Ala]-4-[(2S,3S)-3-methyl-2-(methylamino)-4-(((S)-tetrahydrofuran-3-yl)oxy)butanoyl]-cyclobsporin (peptide)”: the OATP1B13 IC50 is 1.9 µM.
The substance “3-[D-Ala]-4-[(2S,3R)-5-(3-methoxyazetidin-1-yl)-3-methyl-2-(methylamino)pentanoyl]-cyclosporin (peptide)” showed an OATP1B13 IC50 of 1.4 µM.
For “3-[D-Ala]-4-[(2S,3R)-3,6-dimethyl-2-(methylamino)-6-((4-methylpiperazine-1-carbonyl)oxy)heptanoyl]-cyclosporin (peptide)” the value was 4.7 µM.
Under “3-[D-Ala]-4-[(2S,3R)-4-((2-methoxyethyl)(methyl)amino)-3-methyl-2-(methylamino)butanoyl]-cyclosporin (peptide)” stands 1.9 µM; under “3-[D-Ala]-4-[(2S,3R)-3-methyl-2-(methylamino)-4-(4-methylpiperazin-1-yl)butanoyl]-cyclosporin (peptide)”, 7.9 µM; under “3-[D-Ala]-4-[(2S,3R)-6-(4-ethylpiperazin-1-yl)-3-methyl-2-(methylamino)hexanoyl]-cyclosporin (peptide)”, 2.6 µM.
With “3-[D-Ala]-4[(2S,3S)-2-Amino-4-[4-(2-methoxy-ethyl)-piperazin-1-yl]-3-methyl-butanoyl]-cyclosporin (peptide)”, the OATP1B13 IC50 is 3.2 µM.
On to “3-[D-Ala]-4-[(2S,3R)-3-methyl-2-(methylamino)-4-(1,4-dioxa-8-azaspiro[4.5]decan-8-yl)butanoyl]-cyclosporin (peptide)”, for which the OATP1B13 IC50 came out at 2.1 µM.
Regarding “3-[D-Ala]-4-[(2S,3R)-3-methyl-2-(methylamino)-4-(2-oxa-6-azaspiro[3.3]heptan-6-yl)butanoyl]-cyclosporin (peptide)”, the OATP1B13 IC50 came to 3.4 µM.
Substance “3-[D-Ala]-4-[(2S,3R)-5-(4-cyanopiperidin-1-yl)-3-methyl-2-(methylamino)pentanoyl]-cyclosporin (peptide)” gave an OATP1B13 IC50 of 2.4 µM.
“3-[D-Ala]-4-[(2S,3R)-3-methyl-2-(methylamino)-6-morpholino-6-oxohexanoyl]-cyclosporin (peptide)” showed an OATP1B13 IC50 of 4.8 µM.
With “3-[D-Ala]-4-[(2S,3S)-4-(2-(4-isopropylpiperazin-1-yl)-2-oxoethoxy)-3-methyl-2-(methylamino)butanoyl]-cyclosporin (peptide)”, the OATP1B13 IC50 amounted to 8 µM.
Consider “3-[D-Ala]-4[(2S,3S)-2-Amino-3-methyl-4-morpholin-4-yl-butanoyl]-cyclosporin (peptide)”, for which the OATP1B13 IC50 amounted to 3.6 µM.
Regarding “3-[(R)-3-methyl-2-(methylamino)butanoyl]-4-[(2S,3S)-4-methoxy-3-methyl-2-(methylamino)butanoyl]-cyclosporin (peptide)”, the OATP1B13 IC50 amounted to 2 µM.
Take “3-[D-Ala]-4[(2S,3R)-2-Amino-4-(4-ethyl-piperazin-1-yl)-butanoyl]-cyclosporin (peptide)”: the OATP1B13 IC50 is 4.56 µM.
In turn, “3-[D-Ala]-4-[(2S,3R)-3-methyl-2-(methylamino)-4-(3-oxopiperazin-1-yl)butanoyl]-cyclosporin (peptide)” had an OATP1B13 IC50 of 2.1 µM.
“1-dihydro-3-[D-Ala]-4[(2S,3S)-2-Amino-4-[4-(2-methoxy-ethyl)-piperazin-1-yl]-3-methyl-butanoyl]-cyclosporin (peptide)” displayed an OATP1B13 IC50 of 3.3 µM.
In the case of “3-[D-Ala]-4-[(2S,3R)-4-(4-cyanopiperidin-1-yl)-3-methyl-2-(methylamino)butanoyl]-cyclosporin (peptide)”, the OATP1B13 IC50 amounted to 1.9 µM.
For “3-[D-Ala]-4-[(2S,3R)-3-methyl-2-(methylamino)-6-(4-methylpiperazin-1-yl)-6-oxohexanoyl]-cyclosporin (peptide)” the value was 5.4 µM; for “3-[D-Ala]-4-[(2S,3S)-3-methyl-2-(methylamino)-4-((S)-3-oxotetrahydro-1H-oxazolo[3,4-a]pyrazin-7(3H)-yl)butanoyl]-cyclosporin (peptide)”, 1.4 µM; for “3-[D-Ala]-4-[(2S,3R)-4-((2S,5S)-2,5-dimethylmorpholino)-3-methyl-2-(methylamino)butanoyl]-cyclosporin (peptide)”, 2.6 µM.
Turning to “3-[D-Ala]-4-[(2S,3S)-4-(2-((2R,5R)-2,5-dimethylmorpholino)ethoxy)-3-methyl-2-(methylamino)butanoyl]-cyclosporin (peptide)”, the OATP1B13 IC50 came out at 3.6 µM.
Under “3-[D-Ala]-4-[(2S,3R)-4-(3-methoxyazetidin-1-yl)-3-methyl-2-(methylamino)butanoyl]-cyclosporin (peptide)” stands 4.2 µM; under “3-[D-Ala]-4-[(2S,3S)-3-methyl-2-(methylamino)-4-(2-oxo-2-(piperazin-1-yl)ethoxy)butanoyl]-cyclosporin (peptide)”, 6.9 µM; under “3-[D-Ala]-4-[(2S,3R)-3-methyl-2-(methylamino)-5-((S)-2-methylpiperidin-1-yl)pentanoyl]-cyclosporin (peptide)”, 1.7 µM.
For “3-[D-Ala]-4-[(2S,3R)-3-methyl-2-(methylamino)-5-(piperidin-1-yl)pentanoyl]-cyclosporin (peptide)”, the OATP1B13 IC50 is 2.3 µM.
